Test results: patent publication US20220112288A1 (published 2022)

Tests used:
[1] = target: T1, Recombinant human CD4 (R&D Systems, Cat. 10327-CD) (human, UniProt P01730 26-390, limits assumed); assay: BLI Octet, non-clonal supernatant on AMC sensor, 100 nM human CD4;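 note: hybridoma supernatants diluted 1:3, antibodies captured on AMC biosensors, association and dissociation with CD4 followed, curves smoothed and fit locally with 1:1 binding model for single-point kinetics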
T1 construct: Bought reagent; also called huCD4

[2] = target: T1, Recombinant human CD4 (R&D Systems, …); assay: BLI Octet, non-clonal supernatant on AMC sensor, 100 nM human CD4, 1:1 local fit;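 note: Single-concentration kinetics per supernatant, with the 1:1 model fitted across both the association and dissociation phases of the sensorgram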
[3] = target: T2, human CD4 (human, UniProt P01730 26-458); assay: FACS, clonal hybridoma supernatant on human PBMCs
T2 construct: whole, on cells; also called hCD4

Binder	Response [1]	Kd [2] [nM]	koff [2] [s⁻¹]	kon [2] [M⁻¹ s⁻¹]	% CD4 Stain [3] [%]	gMFI of CD4+ [3] [gMFI]
75110_14I16A (antibody, V domains shown, Tested as non-clonal AlivaMab Mouse Kappa hybridoma supernatant, captured by anti-mouse IgG Fc sensor) VH: QVQLQESGPGLVKPSETLSLTCTVSNGSISSYYWSWIRQSAGKGLEWIGRIYTSGSTNYNPSLKSRVTMLVDTSKNQFSLKLSSVTAADTAVYYCARDREDYYYYGMDVWGQGTTVTVSS VL: DIQMTQSPSSLSASVGDRVTITCQASHDISNYLNWYQQKPGKAPKLLLYYASNLETGVPSRFSGSGSGTDFTFTITSLQPEDIGTYSCQQYDNLPLTFGGGTKVEIK	0.0852	< 0.001	< 1e-07	42700		
75110_14N19A (antibody, V domains shown, Tested as non-clonal AlivaMab Mouse Kappa hybridoma supernatant, captured by anti-mouse IgG Fc sensor) VH: QVQLQESGPGLVKPSETLSLTCTVSGGSISRYYWSWIRQPAGKGLEWIGRICTSENPNYNPALKSRVTMSVDTSKNQFSLKLSSVTAADTAVYYCARELERLNYYGMDVWGQGTTVTVSS VL: DIQMTQFPSSLSASVGDRVTITCQASQDISNYLNWYQQKPGKAPKLLIYDASNLESGVPSRFSGRGSGTDFTFTISSLQPEDFATFYCQQYDTLPITFGQGTRLEIK	0.105	19.2	0.00274	143000		
75110_14P05A (antibody, V domains shown, Tested as non-clonal AlivaMab Mouse Kappa hybridoma supernatant, captured by anti-mouse IgG Fc sensor) VH: EVQLVESGGGLVQPGGSLRLSCAASGFTFSSYDVHWVRQATGKGLEWVSTIGTAGDTYYPGSVKGRFTISRENAKNSLYLQMNSLRAGDTAVYYCARGGFYYYGMDVWGQGTTVTVSS VL: EIVLTQSPGTLSLSPGERATLSCRASQSVSSSYLAWYQQKPGQTPRLLIYGASSRATGIPDRFSGSGSGTDFTLTISRLEPEDFAVFYCQQSGSSPFTFGPGTKVDVK	0.149	12.3	0.00185	150000		
75110_01E08A (antibody, V domains shown, Tested as non-clonal AlivaMab Mouse Kappa hybridoma supernatant, captured by anti-mouse IgG Fc sensor) VH: EVQLVESGGGLVQPGGSLRLSCAASGFTFNNYDMHWVRQATGKGLEWVSTIGTAGDTYYPASVKGRFTIYRENAKNSLYLQMNSLRAGDTAVYYCARGGDYYYGMDVWGQGTTVTVSS VL: not shown	0.1	10	0.0014	140000		
75110_10L22A (antibody, V domains shown, Tested as non-clonal AlivaMab Mouse Kappa hybridoma supernatant, captured by anti-mouse IgG Fc sensor) VH: EVQLVESGGGLVQPGGSLRLSCAASGFTFSSYDMHWVRQATGKGLEWVSTIGTAGDTYYPGSVKGRFTISRENAKNSLYLQMNGLRAGDTAVYYCARGNYFYYGVDVWGQGTTVTVSS VL: not shown	0.113	117	0.0065	55700		
75110_11D03A (antibody, V domains shown, Tested as non-clonal AlivaMab Mouse Kappa hybridoma supernatant, captured by anti-mouse IgG Fc sensor) VH: EVQLVESGGGLVQPGGSLRLSCAASGFTFSSYWMSWVRQAPGKGLEWVANINQDGNEKYYVDSVKGRFTISRDNAKNSLFLQMNSLRAEDTAVYYCAREGGQWLALDYWGQGALVTVSS VL: DIQMTQSPSSVSASVGDRVTITCRASQGISSWLAWYQQKPGKAPKFLISGASSLQSGVPSRFSGSGSGTDFTLTISSLQPEDFATYYCQQANSFPWTFGQGTKVEIK	0.177	4.67	0.000524	112000		
75110_01A06A (antibody, V domains shown, Tested as non-clonal AlivaMab Mouse Kappa hybridoma supernatant, captured by anti-mouse IgG Fc sensor) VH: EVQLVESGGGLVQPGGSLRLSCAASGFTFSSYWMSWVRQAPGKGLEWVANINEDGNEKYYVDSVKGRLTISRDNAKNSLYLQMNSLRAEDTAVYFCAREGGQWLSLDYWGQGALVTVSS VL: DIQMTQSPSSVSASVGDRVSITCRASQGISSWLAWYQQKPGKAPKILIYGASSLQSGVPSRFSGSGSGTDFTLTISSLQPEDFATYYCQQANSFPWTFGQGTKVEIK	0.28	11	0.0013	120000		
75110_02N15A (antibody, V domains shown, Tested as non-clonal AlivaMab Mouse Kappa hybridoma supernatant, captured by anti-mouse IgG Fc sensor) VH: EVQLVESGGGLVQPGGSLRLSCAASGFTFSSYWMSWVRQAPGKGLEWVANINEDGNEKYYVDSVKGRFTISRDNAKNSLFLQMNSLRAEDTAVYFCAREGGQWLALDHWGQGALVTVSS VL: DIQMTQSPSSVSASVGDRVTITCRASQGISSWLAWYQQKPGKAPKFLISGASSLQSGVPSRFSGSGSGTDFTLTISSLQPEDFATYYCQQANSFPWTFGQGTKVEFK	0.16	6.7	0.00069	100000		
75110_01K10A (antibody, V domains shown, Tested as clonal hybridoma supernatant (AlivaMab Mouse Kappa; anti-mouse Fc detection); also called Sib1.3) VH: EVQLVESGGALVQPGGSLRLSCAASGFTFRNYDMHWVRQATGKGLEWVSTIGTAGDTYYPGSVKGRFTISRENAKNSLYLQMNSLRAGDTAVYYCARGGDYYYGMDVWGQGTTVTVSS VL: EIVLTQSPDTLSLSPGERATLSCRASQSLSSVYLAWYQQKPGQAPRLLIYGASSRATGIPDRFSGTGSGTDFTLTISRLEPEDFAVYYCQQYGSSPFTFGPGTKVDIK					38	191000
75110_02I18A (antibody, V domains shown, Tested as clonal hybridoma supernatant (AlivaMab Mouse Kappa; anti-mouse Fc detection); also called 75110_02118A; Sib1.14) VH: EVQVVESGGGLVQPGGSLRLSCAASGFTFSSYDMHWVRQATGKGLEWVSTIGTAGDTYYPGSVKGRFTISRENAKNSLYLQMNSLRAGDTAVYYCARGGYYYYGMDVWGQGTTVTVSS VL: EIVLTQSPGTLSLSPGERATLSCRASQSVSSSYLAWYQQKPGQSPRLLIHGASSRATGIPDRVSGSGSGTDFTLTISRLEPEDFAVYYCQQYGSSPFTFGPGTKVDIK					40.5	162000
75110_01G11A (antibody, V domains shown, Tested as clonal hybridoma supernatant (AlivaMab Mouse Kappa; anti-mouse Fc detection); also called Sib1.6) VH: EVQLVESGGGLVQPGGSLRLSCAASGFTFSSYDMHWVRQATGKGLEWVSTIGTAGDTYYPGSVKGRFTISRENARNSLFLQMNSLRAGDTAVYYCARGGDYYYGMDVWGQGTTVTVSS VL: EIVLTQSPGTLSLFPGERATLSCRASQNTYSSYLAWYQQKPGQAPRLLIYGASNRATGIPDRFSGSGSGTDFTLTISRLEPEDFAVYYCQQHGTSPFTFGPGTKVDIK					39	164000
75110_01H18A (antibody, V domains shown, Tested as clonal hybridoma supernatant (AlivaMab Mouse Kappa; anti-mouse Fc detection); also called Sib6.1) VH: QVQLQQWGAGLLKPSETLSLTCAVYGGSFSGYYWSWIRQSPGKGLEWIGEINQSGSTNYNPSLKSRVTISVDTSKNQFSLKLSSVTAADTAVYYCARVINWFDSWGQGTLVTVSS VL: DIQMTQSPSSVSASVGDRVTITCRASQGISSWLAWYQQKPGKAPKLLIYAASSFQSGVPSRFSGSGSGTDFTLTISSLQTEDFATYYCQQANSFPYTFGQGTRLEIK					48.8	101000
75110_03C01A (antibody, V domains shown, Tested as clonal hybridoma supernatant (AlivaMab Mouse Kappa; anti-mouse Fc detection); also called Sib6.2) VH: QVQLQQWGAGLLKPSETLSLTCAVYGGSFSGYYWSWIRQSPGKGLEWIGEINQSGSTNYNPSLKSRVTISVDTSKDQFSLKLSSVTAADTAVYYCARVINWFDSWGQGSLVTVSS VL: DIQMTQSPSSVSASVGDRVTITCRASQGISSWLAWYQQKPGNAPKLLIYDASSFQSGVPSRFSGSGSGTDFTLTISSLQTEDFATYYCQQANSFPYTFGQGTKLEIK					36.1	169000
75110_01J09A (antibody, V domains shown, Tested as clonal hybridoma supernatant (AlivaMab Mouse Kappa; anti-mouse Fc detection); also called Sib2.2) VH: EVQLVESGGGLVQPGGSLRLSCVASGFTFSSYWMSWVRQAPGKGLEWVANTKEDGSDKYYVDSVKGRFTICRDNAKNSLYLQMNSLRAEDTAVYYCAREGGQWLALDYWGQGTLVTVSS VL: DIQMTQSPSSVSASVGDRVTINCRASQGISSWLAWYQQKPGKAPNLLIFGASSLQSGVPSRFSGSGFGTDFSLTITTLQPEDFATYHCQQANSFPWTFGQGTKVEIK					34.8	143000
75110_01J17A (antibody, V domains shown, Tested as clonal hybridoma supernatant (AlivaMab Mouse Kappa; anti-mouse Fc detection); also called Sib1.12) VH: EVQLVESGGGLVQPGGSLRLSCAASGFTFSSYDMHWVRQGTGKGLEWVSTIGTADDTYYPGSVKGRFTISRENAENSLYLQMNSLRAGDTAVYYCARGGDYYYGMDVWGQGTTVTVSS VL: EIVLAQSPGTLSLSPGERATLSCRASQSVYISYLAWYQQKPGQAPRLLIYGASSRATGIPDRFSGSGSGTDFTLTITRLEPEDFAVYYCQQFGSSPFTFGPGTKVDFK					35.2	167000
75110_01L08A (antibody, V domains shown, Tested as clonal hybridoma supernatant (AlivaMab Mouse Kappa; anti-mouse Fc detection)) VH: QVQLQESGPGLVKPSETLSLTCTVSGGSISHYYWSWIRQPPGKGLEWIGYIHYSGTTNYNPSLKSRVTISVDTSKNQLSLKLRSVTAADTAVYYCARDQGFSSGGMDVWGQGTTVTVSS VL: not shown					35.3	208000
75110_02E08A (antibody, V domains shown, Tested as clonal hybridoma supernatant (AlivaMab Mouse Kappa; anti-mouse Fc detection)) VH: QVQLQESGPGLVKPSETLSLTCTVSGGSISTYYWTWIRQPAGKGLEWIGRVYTSGDTNYNPSLKSRVAMSLDTSKNQFSLKLSSVTAADTAVYYCARDSGALYSWNYGDAFDIWGQGTMVTVSS VL: DIQMTQSPSAMSASVGDRVTITCRASQDISNYLAWFQQKPGKVPKRLIYAASSLQSGVPSRFSGSGSGTEFTLTISSLQPEDFATYYCLQHNSYPRTFGQGTKVEIK					35.4	115000
75110_02E22A (antibody, V domains shown, Tested as clonal hybridoma supernatant (AlivaMab Mouse Kappa; anti-mouse Fc detection); also called Sib7.1) VH: QVQLQESGPGLVKPSETLSLTCTVSGGSISSFYWSWIRQPAGKGLEWIGRIYTSGSTNYNPSLKSRVTMSVDTSKNQFSLKLSSVTAADTAVYYCARELEKRNYYGMDVWGQGTTVTVSS VL: DIQMTQSPSSLSASVGDRVTITCQASHDISNYLNWYQQKPGKAPKLLIFDASTLETGVPSRFSGSGSGTYFTFTIRSLQPEDIATYYCQQYDSLPLTFGGGTKVEIK					32.8	268000
75110_02I16A (antibody, V domains shown, Tested as clonal hybridoma supernatant (AlivaMab Mouse Kappa; anti-mouse Fc detection); also called 75110_02116A) VH: QVQLQQWGAGLLKPSETLSLTCDVYGGSFSGYYWTWIRQPPGKGLEWIGEINHSGTTNSNPSLKSRVTISVDTSKSQFSLRLSSVTAADTAVYFCTRELNWFDPWGQGTLVTVSS VL: DIQMTQSPSSVSASVGDRVTITCRASQDIANWLAWYQQKPGKAPQLLIYAASSLLGGVPSRFSGSGSGADFTLTISSLHPEDFATYYCQQANSFPYTFGQGTKLEIK					36.1	145000
75110_02K11A (antibody, V domains shown, Tested as clonal hybridoma supernatant (AlivaMab Mouse Kappa; anti-mouse Fc detection); also called Sib3.1) VH: QVQLQESGPGLVKPSQTLSLTCTVSGGSISSGFYYWTWIRQHPGKGLEWIGYISYSGNTYYNPSFKSRLTISVDTSKSQFSLKLSSVTAADTAVYYCARDRPSNFDAFDIWGQGTMVTVSS VL: not shown					28.2	203000
